Literature values in patent publication US20240307501A1 (priority 2021, published 2024).

Settings: chronic doses of glucagon, patients with CHI, across 2 studies

## Glucagon: native glucagon used off-label by IV or continuous SC infusion for CHI
  patients with erythema necrolyticum: 4 out of 11
